In data set [1] the target is T1, BP/KNAT1 (B…US) (Arabidopsis thaliana, UniProt P46639 1-398).
T1 sequence: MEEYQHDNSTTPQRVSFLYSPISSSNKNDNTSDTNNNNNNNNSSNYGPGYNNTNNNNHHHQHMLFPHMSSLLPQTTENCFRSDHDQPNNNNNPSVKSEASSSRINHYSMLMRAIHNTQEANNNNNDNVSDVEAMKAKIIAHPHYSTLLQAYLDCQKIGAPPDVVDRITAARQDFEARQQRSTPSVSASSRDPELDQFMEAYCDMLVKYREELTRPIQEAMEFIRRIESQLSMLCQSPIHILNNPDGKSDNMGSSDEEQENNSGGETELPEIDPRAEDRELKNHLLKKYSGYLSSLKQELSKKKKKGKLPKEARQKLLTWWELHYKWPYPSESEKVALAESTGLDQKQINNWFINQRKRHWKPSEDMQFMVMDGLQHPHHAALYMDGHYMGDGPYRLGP
Nature of the data set: EMSA; excess unlabeled probe reduced binding; LightShift Chemiluminescent EMSA kit; 0.5 ug BP-His with biotin-labeled probe, 20 min at room temperature, 6% polyacrylamide gel; buffer, salt and pH not stated. As to conditions: protein: recombinant; tags: His (pET32a, per Methods); Results text says BP-MBP; label: biotin (both strands, per oligo names); blunt.

In data set [2] the target is T1, BP/KNAT1 (B…US). In words: competition; excess unlabeled mutant vs biotin-labeled NCED6 probe; did not effectively reduce binding; LightShift Chemiluminescent EMSA kit; 0.5 ug BP-His with biotin-labeled probe, 20 min at room temperature, 6% polyacrylamide gel; buffer, salt and pH not stated. As to conditions: protein: recombinant; tags: His (pET32a, per Methods); Results text says BP-MBP; blunt.

The target of data set [3] is T1, BP/KNAT1 (B…US). In words: competition; excess unlabeled mutant vs biotin-labeled NCED9 probe; did not effectively reduce binding; LightShift Chemiluminescent EMSA kit; 0.5 ug BP-His with biotin-labeled probe, 20 min at room temperature, 6% polyacrylamide gel; buffer, salt and pH not stated. The conditions noted are these: protein: recombinant; tags: His (pET32a, per Methods); Results text says BP-MBP; blunt. A general note: In EMSA bound probe runs differently from free probe, usually more slowly.

Numbering of substitutions follows the chain as printed.

B1: NCED6 probe (dsDNA)
DNA 1: TAGCCGGACATCATTTATTTGACGGTGACGGAATGATTCACGCCGTTA
DNA 2: TAACGGCGTGAATCATTCCGTCACCGTCAAATAAATGATGTCCGGCTA
As to B1, the binding result in the data set with BP/KNAT1 (B…US) [1] is listed as “binds”.

B2: NCED6-M mutant competitor (dsDNA)
DNA 1: B1 DNA 1 with T20A, G21A, C23A, T26A, G27A, C29A
DNA 2: B1 DNA 2 with G20T, C22T, A23T, G26T, C28T, A29T
On to B2, for which the binding result with BP/KNAT1 (B…US) [2] is reported as “no binding”.

B3: NCED9-M mutant competitor (dsDNA)
DNA 1: CATTACACTTTTTTAAAAAAAATGGAATGCAAAAAGTTTGGGCAC
DNA 2: GTGCCCAAACTTTTTGCATTCCATTTTTTTTAAAAAAGTGTAATG
As to B3, the binding result in the data set with BP/KNAT1 (B…US) [3] is recorded as “no binding”.

B4: NCED9 probe (dsDNA)
DNA 1: CATTACACTTTTTTAAAATGACTGGAATGCATGACGTTTGGGCAC
DNA 2: GTGCCCAAACGTCATGCATTCCAGTCATTTTAAAAAAGTGTAATG
With B4, in the data set with BP/KNAT1 (B…US) [1], the binding result is given as “binds”.

These data come from paper PMC12785155, “Phytochrome B stabilizes the KNOX transcription factor BP/KNAT1 to promote light-initiated seed germination in Arabidopsis thaliana”.
